Assay: soluble on expression in E. coli; label from the status in PepcDB or PDB records

SNAMDFHIRKATNSDAEAIQHVATTSWHHTYQDLIPSDVQDDFLKRFYNVETLHNRISATPFAVLEQADKVIGFANFIELEKGKSELAAFYLLPEVTQRGLGTELLEVGMTLFHVPLPMFVNVEKGNETAIHFYKAKGFVQVEEFTEDFYGYPLETIRFNLNH
soluble on expression in E. coli: soluble

MAHHHHHHMGKLSKDRRDIYYRKAKESGYRARSSFKLIQINEKFGILKLFKPDIYNCNNEKDLINIYNEHYCYNIVDLCAAPGSWSQVLKNICLYNYYQILYMINKYNNNENIKNIQHEEFLNKFSLYINYNEELENKIKNLKIKCSNIKEPNIVAVDLQEIGNMNYVKIIQGDITKMSTIDKILKCMNNKINSDEENVNVFYNMEQQKKENNFSYAHTVVSDGAPDITGMNDIDEFIQSQLILSSLKVCCSVLKVGGNFISKIFRGEHTGLLILHLNKFFQRVYICKPQSSRNKSLESFLVCLNFSLPRSNIISMNNHNAENKINDKYLSEEQMRKFHAQLITYKDKDDQESEEKKENYNSHDNIDYNLCHTTKHNKNISDEIETKEVSSPYEHNNIVENNVTPNSDMLKNINKIINEYDNDKNNLDIFNFYCSDSDEEIKYFNSEDEEVVNNYISSESFMSNKLFSFIATDNYYDSDKSYLLPENYVRHEPQLMPLKPPYMLSLQKKRQEVKK
soluble on expression in E. coli: not soluble

MAKKVLIISSSPRKGGNSDMLCDEFMKGVLETGNEVEKIFLKEKVIHPCTGCSVCSMYGKPCPQKDDAAGIVEKMIAADVIVMATPVYFYTMCGQMKIMIDRCCARYTEITNKEFYFIIAAAENDKGMMERTIDGFRGFLDCLENPQEKGVIYGIGAWKVGEIKDTPYMQEAYEMGKMV
soluble on expression in E. coli: not soluble

MLRFYAMKQITEPGTYEIRGEVAEGDFSWDATNFAGFFYDVNDDVSTESLTVTGLNGGNVIPEGGLVYETTIQMVDYEYSKPSVGWDQFPVLGFFAEEYIPINADKADKLAKLVLDSDDKYTIRTGEQLDLGEGYAIEAKQVDVDGEKVWLEFTKDGEFVDDEIISVVSGSDNTWEVELDDIQDEDDVVVLRVHVNQVFQGAVDSIAQIEGIWLIDYANAMKIESDDEFGDLDNVKINGATLTITNEDTFTLTRDDEVEIGQGMFFKVADTAASDLRYYPFVEKTIDGEVVDDDEDDDNVTEPVDNDTEVEEPTEEPTEGPTEELEHHHHHH
soluble on expression in E. coli: not soluble

MAHHHHHHMEFNRSQAAGNGKYVELFAQSYSGPVPKPLPPCTEPTPDEQYRQLMEEKKNEIGEREQRHAENTAGASGSNVDSSNVVGLFSNAATKLRNVAQQVTLKIERASTEVSSATGAAVRQVERQLNVDRFLSNFPELGAMGEILLADYACTAINGGQRVSGHMHITKNYLCFSAPGSSVINQLATAVLKESGVGSDNNPVLGIRQIIPLTEIACILLSVALETVDHRPPFFLPLPASYVRPTGLQIYTTKQQLFQFLAFESIAAKAGSVFTDAVKGLPIQRAYNYLDHAWRASTSVPLPGVNYAS
soluble on expression in E. coli: not soluble

DQAGKSPNAVRYHGGDEIILQGFHWNVVREAPNDWYNILRQQAATIAADGFSAIWMPVPWRDFSSWSDGSKSGGGEGYFWHDFNKNGRYGSDAQLRQAASALGGAGVKVLYDVVPNHMNRGYPDKEINLPAGQGFWRNDCADPGNYPNDCDDGDRFIGGDADLNTGHPQVYGMFRDEFTNLRSQYGAGGFRFDFVRGYAPERVNSWMTDSADNSFCVGELWKGPSEYPNWDWRNTASWQQIIKDWSDRAKCPVFDFALKERMQNGSIADWKHGLNGNPDPRWREVAVTFVDNHDTGYSPGQNGGQHHWALQDGLIRQAYAYILTSPGTPVVYWDHMYDWGYGDFIRQLIQVRRAAGVRADSAISFHSGYSGLVATVSGSQQTLVVALNSDLGNPGQVASGSFSEAVNASNGQVRVWRSGTGSGGGEPGALVSVSFRCDNGATQMGDSVYAVGNVSQLGNWSPAAALRLTDTSGYPTWKGSIALPAGQNEEWKCLIRNEANATQVRQWQGGANNSLTPSEGATTVGRL
soluble on expression in E. coli: soluble

MARKHIYIAYTGGTIGMKKSDHGYVPVAGFMEKQLASMPEFHRPEMPLFTIHEYDPLMDSSDMTPADWQLIADDIAANYDKYDGFVILHGTDTMAYTASALSFMFENLGKPVIVTGSQIPLADLRSDGQANLLNALHVAANYPINEVTLFFNNRLMRGNRSRKSHADGFSAFSSPNLPPLLEAGINIELSTNVKVDEKPSGEFKVNPITPQPIGVITMYPGISHEVIRNTLLQPVNAMILLTFGVGNAPQNPELLAQLKAASERGVIVVNLTQCLAGKVNMGGYATGCALADAGVISGYDMTPEAALAKLHYLLSQNLSYEEVKAKMQQVLRGEMTL
soluble on expression in E. coli: soluble

MRGSHHHHHHGMASMTGGQQMGRDLYDDDDKMSVIKPEMKMKYFMDGSVNGHEFTVEGEGTGKPYEGKHKITLDVTKGGPLPFAFDLLSTVFSYGNRCLTKYPDDIPDYFKQCFPGGYSWERKFEFEDGGLAIAKAEISLKGNCFEHKSTIEGTFPDSSPIAQNKTLGWEPSTEKMTVRDGSMKGDDAAYLKLVGGGNHKCYFTTTYTAKKKIPNLPQSHFIGHRISSVVNGTKIGVMEDAIAHLYPFNGVPCQ
soluble on expression in E. coli: soluble

SHSLGWIFGMPCNQRSSTKASCEEVFDPTEESYLNIETSL
soluble on expression in E. coli: soluble

MSLSVTRENFDEWMVPVYVPAPFIPVRGEGSRLWDQQGKEYIDFAGGIAVNALGHAHPALREALNEQANRFWHIGNGYTNEPALRLAKKLIDATFAERVFFCNSGAEANEAALKLARKYAHDRVGNHKSGIVAFKNAFHGRTLFTVSAGGQPTYSQDFAPLPPDIRHAAYNDLNSASALIDDNTCAVIVEPVQGEGGVIPATKAFLQGLRELCDRHQALLIFDEVQTGVGRTGELYAYMHYGVTPDILTTAKALGGGFPIGAMLTTQDYASVMTPGTHGTTYGGNPLATAVAGKVLDIINTPEMQNGVRQRHDAFIERLNTLNVRFGMFSEIRGLGLLLGCVLQTEFAGKAKLIAQEAAKAGVMVLIAGGDVVRFAPALNVSDEEIATGLDRFALACERLQTGGVPCG
soluble on expression in E. coli: not soluble

MGALVIRGIRNFNLENRAEREISKMKPSVAPRHPSTNSLLREQISLYPEVKGEIARKDEKLLSFLKDVYVDSKDPVSSLQVKAAETCQEPKEFRLPKDHHFDMINIKSIPKGKISIVEALTLLNNHKLFPETWTAEKIMQEYQLEQKDVNSLLKYFVTFEVEIFPPEDKKAIRSK
soluble on expression in E. coli: soluble

MGSDKIHHHHHHLTLESKYHKKPEEIEEEQLWIEKAKQNPQHFAVLYEKYYKTIFLYLFRKVNDMDVAGDLCSDVFSKALSAIQSYEYKGVPYSAWLYRIAANEANMYFRKHNKREMICIDDTSIHLLNEDLQESNEENIYLTFLPLCLERLKPDEVILVQWRFFENKAFKEVGEIMNMTENNAKVKTYRILEKIRKWMLEMKGKSNE
soluble on expression in E. coli: not soluble

QDFAEIYARFSDERANEQANRCSQCGVPFCQVHCPVSNNIPDWLKLTSEGRLEEAYEVSQATNNFPEICGRICPQDRLCEGNCVIEQSTHGAVTIGSVEKYINDTAWDQGWVKPRTPSRELGLSVGVIGAGPAGLAAAEELRAKGYEVHVYDRYDRMGGLLVYGIPGFKLEKSVVERRVKLLADAGVIYHPNFEVGRDASLPELRRKHVAVLVATGVYKARDIKAPGSGLGNIVAALDYLTTSNKVSLGDTVEAYENGSLNAAGKHVVVLGGGDTAMDCVRTAIRQGATSVKCLYRRDRKNMPGSQREVAHAEEEGVEFIWQAAPEGFTGDTVVTGVRAVRIHLGVADATGRQTPQVIEGSEFTVQADLVIKALGFEPEDLPNAFDEPELKVTRWGTLLVDHRTKMTNMDGVFAAGDIVRGASLVVWAIRDGRDAAEGIHAYAKAKAEAPVAVAAE
soluble on expression in E. coli: soluble

MGSDKIHHHHHHMAKNKALFECQACGNQQSKWLGKCPDCGAWDSFVELKAEQIKVLKELAQVSMKTSEAVCIEDVELEHFTRYSTDDNELDLVLGGGLVEGSLVLIGGSPGVGKSTLLLKIASNLAKQGKKVLYVSGEESKAQIKLRADRLEANTPNLFLLTELCLENILEELHKKDYSILIVDSIQTLYSNKITSAAGSITQVREITFELMRVSKAYNISTFIIGHITKEGAIAGPRVLEHMVDVVLYFEGDATKEIRLLRGFKNRFGGTNEVGIFEMTAKGLISAKDLANRFFTRGKAISGSALGVVMEGSRALVLEVQALVCESSYPKRSATGYEKNRLDMLLALLERKLEIPLGHYDVFVNISGGVKVSETAADLAVVAAIISSFKNRPLSKDSIFIGELSLNGEIREVFSLDTRLKEAKMQKFKNAIVPSKPLEDIGLKCFVAKELSQVLEWM
soluble on expression in E. coli: not soluble

MFNKILVVCVGNVCRSPTAERLLKRFHPSLTVASAGLGALVGKGADPAAASVASAHDLSLENHCARQISARLCREYDLILTMEKRHIAALCDIAPEMRGKVMLFGHWDSEREIPDPYRKSRDAFEAVYTLLERSARQWAQALNAEQGKP
soluble on expression in E. coli: not soluble
